Source: article PMC8215223
Numbering of substitutions follows the chain as printed. Numbers in names are those of the source.

T1: tubulin (endogenous), P07437
T1 chain: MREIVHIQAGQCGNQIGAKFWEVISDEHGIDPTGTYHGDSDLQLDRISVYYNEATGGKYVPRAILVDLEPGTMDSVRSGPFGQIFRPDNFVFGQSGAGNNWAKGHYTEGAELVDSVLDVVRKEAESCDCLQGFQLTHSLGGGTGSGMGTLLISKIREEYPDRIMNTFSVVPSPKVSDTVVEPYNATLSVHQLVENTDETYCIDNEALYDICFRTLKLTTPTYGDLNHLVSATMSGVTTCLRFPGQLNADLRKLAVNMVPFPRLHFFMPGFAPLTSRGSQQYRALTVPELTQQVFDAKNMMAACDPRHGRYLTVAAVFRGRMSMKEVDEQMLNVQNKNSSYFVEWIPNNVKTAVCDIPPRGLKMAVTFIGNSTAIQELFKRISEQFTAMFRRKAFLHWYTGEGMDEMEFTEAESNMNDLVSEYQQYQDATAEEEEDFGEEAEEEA

B1: GFP-WT-HOOK3, Q86VS8 S238A (protein)
chain: MFSVESLERAELCESLLTWIQTFNVDAPCQTVEDLTNGVVMAQVLQKIDPAYFDENWLNRIKTEVGDNWRLKISNLKKILKGILDYNHEILGQQINDFTLPDVNLIGEHSDAAELGRMLQLILGCAVNCEQKQEYIQAIMMMEESVQHVVMTAIQELMSKESPVSAGNDAYVDLDRQLKKTTEELNEALSAKEEIAQRCHELDMQVAALQEEKSSLLAENQVLMERLNQSDSIEDPNAPAGRRHLQLQTQLEQLQEETFRLEAAKDDYRIRCEELEKEISELRQQNDELTTLADEAQSLKDEIDVLRHSSDKVSKLEGQVESYKKKLEDLGDLRRQVKLLEEKNTMYMQNTVSLEEELRKANAARSQLETYKRQVVELQNRLSEESKKADKLDFEYKRLKEKVDSLQKEKDRLRTERDSLKETIEELRCVQAQEGQLTTQGLMPLGSQESSDSLAAEIVTPEIREKLIRLQHENKMLKLNQEGSDNEKIALLQSLLDDANLRKNELETENRLVNQRLLEVQSQVEELQKSLQDQGSKAEDSVLLKKKLEEHLEKLHEANNELQKKRAIIEDLEPRFNNSSLKIEELQEALRKKEEEMKQMEERYKKYLEKAKSVIRTLDPKQNQGAAPEIQALKNQLQERDRLFHSLEKEYEKTKSQREMEEKYIVSAWYNMGMTLHKKAAEDRLASTGSGQSFLARQRQATSSRRSYPGHVQPATAR
B2: GFP-WT-HOOK3, Q86VS8 S238E (protein)
chain: B1 chain with A238E
B3: GFP-WT-HOOK3, Q86VS8 S707A (protein)
chain: B1 chain with A238S, S707A
B4: GFP-WT-HOOK3, Q86VS8 S238A; S707A (protein)
chain: B1 chain with S707A
B5: GFP-WT-HOOK3, Q86VS8 S238E; S707E (protein)
chain: B1 chain with A238E, S707E
B6: GFP-WT-HOOK3, Q86VS8 S707E (protein)
chain: B1 chain with A238S, S707E

Molecular target: T1, tubulin (endogenous), P07437
Assay: coIP (co-immunoprecipitation, blot band intensity quantified)
Details: chain shown with the change; HeLa cells, 100 ng/mL nocodazole for 16 hr (+); parent: est. 7.8; read off a plot

Row | response | Binder
1 | 8.8 A.U | B1
2 | 20 A.U | B2
3 | 8.5 A.U | B3
4 | 19 A.U | B4
5 | 9 A.U | B5
6 | 12 A.U | B6
